Measured values taken from publication doi:10.1101/2025.01.31.636011, “Discovery of a distinct BAM complex in the Bacteroidetes” (bioRxiv, 2025).

B1: BtBamG (Bt4306) (natural protein, UniProt Q89ZS0 18-542, looked up)
chain: CDDNTGGLGLGMFPGNDQNIKGKLSTFDVTTESVKTGDIYAKTNIGYIGKFTDETFGTYQAGFLAQLNCPDGLTFPEPYKEVTDASGNVISATGRMVVDDKDPENKDVTFIKDGNQIIGNIRAVELYLWYDSYFGDSLTACRLSVYELGGNGKETLNLDNAYYTDINPEDFYDSQNILGTKAYTAVDLSVKDSIRNLSTYVPSVHIAFKEDIATRVGGNILTAARKAKNADKEFNSQLFREAFQGIYVKSDYGDGTVLYIDQPQMNVVYKCYATDSITGKKLQKKDGSGKDSTYYSYRVFATTREVIQANQLKNDPERIDALIKEDKNTYLKSPAGIFTEATLPISDIQNELTGDTLNAVKLTFTNYNQTGDKKFGMAIPSTVMLVRKKFQDSFFKDNKLSDGVSSYLTSHTSSTNQYVFSNITKLVNACIAEKEEAKKNAGSSWDETKWLQENPDWNKVVLIPVLVTYDSSNTTTGQANIIRIQHDLKPGYVRLKGGSLGKTNPDYKLKLEVISTDFGLTTKSN
modifications: tri-acylated lipid anchor on the N-terminal cysteine; O-glycosylation (glycan on Ser309)
notes: also called Bt4306/BamG

Tests used:
Details in all cases: both partners purified
[1] = target: T1, BtBamA (Bt3725) with an N-terminal His7 tag (Bacteroides thetaiotaomicron, UniProt Q8A1E1 20-885); test: cryo-EM structure; BtBAM complex co-purified through BtBamAhis from B. theta membranes, in DDM, 8 mg/ml; two 3D classes and a composite model
T1 construct: also called BtBamAhis; BamAhis
T1 sequence (looked up): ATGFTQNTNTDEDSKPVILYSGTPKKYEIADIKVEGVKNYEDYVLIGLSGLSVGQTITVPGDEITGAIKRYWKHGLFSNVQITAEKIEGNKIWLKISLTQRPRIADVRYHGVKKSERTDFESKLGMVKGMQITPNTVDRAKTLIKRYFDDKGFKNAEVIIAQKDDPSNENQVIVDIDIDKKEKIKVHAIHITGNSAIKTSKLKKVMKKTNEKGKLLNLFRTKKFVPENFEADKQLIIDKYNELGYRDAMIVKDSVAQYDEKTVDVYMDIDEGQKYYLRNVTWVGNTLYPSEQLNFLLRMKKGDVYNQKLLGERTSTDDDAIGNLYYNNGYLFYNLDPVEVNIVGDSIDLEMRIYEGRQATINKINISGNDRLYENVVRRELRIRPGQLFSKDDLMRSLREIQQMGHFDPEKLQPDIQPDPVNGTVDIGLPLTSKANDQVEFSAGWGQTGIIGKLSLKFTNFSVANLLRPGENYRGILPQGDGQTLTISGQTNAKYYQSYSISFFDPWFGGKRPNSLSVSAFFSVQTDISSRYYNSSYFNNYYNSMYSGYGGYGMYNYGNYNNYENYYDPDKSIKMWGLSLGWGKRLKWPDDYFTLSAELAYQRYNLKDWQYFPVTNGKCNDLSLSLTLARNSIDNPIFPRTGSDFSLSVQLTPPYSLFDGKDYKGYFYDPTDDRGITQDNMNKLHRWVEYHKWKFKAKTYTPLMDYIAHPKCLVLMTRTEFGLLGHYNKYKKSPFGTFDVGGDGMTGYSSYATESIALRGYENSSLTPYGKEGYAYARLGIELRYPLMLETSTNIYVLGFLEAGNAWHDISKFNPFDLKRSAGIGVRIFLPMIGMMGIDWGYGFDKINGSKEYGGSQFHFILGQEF

BtBamG (Bt4306) [2] = target: B1; test: cryo-EM structure
PgBamA (PGN_0299) = target: T2, PgBamA (PGN_0299) (Porphyromonas gingivalis (endogenous in …, UniProt B2RHH3 20-891)); test: cryo-EM structure; PgBAM complex co-purified through C-terminally His-tagged PgBamG from P. gingivalis membranes, in DDM, 4.9 mg/ml
T2 construct: also called P. gingivalis BamA; source: endogenous, P. gingivalis expressing His-tagged BamG, membranes solubilised in DDM
T2 sequence: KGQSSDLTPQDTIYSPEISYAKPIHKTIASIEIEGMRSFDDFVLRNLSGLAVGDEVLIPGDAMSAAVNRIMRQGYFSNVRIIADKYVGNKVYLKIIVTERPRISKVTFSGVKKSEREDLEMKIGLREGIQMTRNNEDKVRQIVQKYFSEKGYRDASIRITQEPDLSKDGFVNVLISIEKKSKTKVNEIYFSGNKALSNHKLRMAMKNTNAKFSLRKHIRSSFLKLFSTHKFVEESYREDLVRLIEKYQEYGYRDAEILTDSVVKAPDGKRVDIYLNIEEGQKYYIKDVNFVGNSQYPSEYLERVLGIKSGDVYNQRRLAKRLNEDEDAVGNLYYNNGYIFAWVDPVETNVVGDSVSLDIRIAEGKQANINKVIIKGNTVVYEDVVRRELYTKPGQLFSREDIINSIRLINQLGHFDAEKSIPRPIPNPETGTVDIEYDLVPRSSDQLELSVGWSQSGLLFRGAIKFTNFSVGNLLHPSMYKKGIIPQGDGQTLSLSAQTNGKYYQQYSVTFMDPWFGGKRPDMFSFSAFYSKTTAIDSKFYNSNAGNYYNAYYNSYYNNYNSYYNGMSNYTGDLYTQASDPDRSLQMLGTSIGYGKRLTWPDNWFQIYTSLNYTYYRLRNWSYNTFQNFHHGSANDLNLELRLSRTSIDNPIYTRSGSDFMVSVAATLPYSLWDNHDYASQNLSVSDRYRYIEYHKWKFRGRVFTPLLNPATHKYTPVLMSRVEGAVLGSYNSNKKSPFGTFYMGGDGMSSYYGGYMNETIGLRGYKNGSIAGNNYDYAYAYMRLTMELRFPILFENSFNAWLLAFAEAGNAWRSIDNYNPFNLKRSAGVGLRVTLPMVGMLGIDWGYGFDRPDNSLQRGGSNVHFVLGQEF

BtBamG (Bt4306) [3] = target: B1; test: cryo-EM structure; BtBAM complex co-purified through BtBamAhis from B. theta membranes, in DDM, 8 mg/ml; two 3D classes and a composite model

B1: binds [1].

B2: BtBamF (Bt4367) (natural protein, UniProt Q89ZL0 23-431, looked up)
chain: QNNTNSPYTRYGYGDLSDQSFGNSKAMGGIAFGLRDGAQINPTNPASYTAIDSLTFLFEGGVSLQNMNISGGGLKLNAKNASFDYLAMQFRLAPWMAMSVGLLPYSNVGYTVSDSQTTDNGLAYSRSFTGDGGLHQMYVGAGVKVLKNLSVGVNASYFWGDITRTRGMFYPGTSSYDSYQRKMVTSISDYKLDFGAQYTQALNKKSSLTIGAVYSPKHKLNNDYTSIVIMGASSSSYGTEYKDVLDATFELPNTFGVGFTYNYDKRLTVGADYSLQQWSKTNFGVVTSDENVRQDFNETFTYCDRTKISVGAEYIPNLIGRSYFAHIKYRLGAYYTTPYYKIDGKKASREYGVTAGFGLPVPRSRSILSISGQFVRVKGLETNMVNENIFRVSIGLTFNERWFFKRRVE
modifications: O-glycosylation (glycan on Ser75)
B2: binds (BtBamG (Bt4306) [2]).

B3: PgBamG (PGN_1735) with a C-terminal 7His-tag (natural protein)
chain: CDDDLSPIGGSIQPPSDPVSARVDTLEFSVKTIPMGDIYNRTNYTLLGDLTDPEYGDLKADYIMQFKSPRNFKFKYPPKDGKIDSVKLSINYDSWAGDSTSIMKVSIYKINKAIPPSYYSTQELASLLDETQIIASQTFKAGNDSAFHRVRIPLPNEIGQKIYDLSVNNPSVFDTQESFYNNVLGGLYVTTTTGTGVVLSVYNTQMAIFYSYKVAADSTATASETFVNTSESYQVNHIKNSQISHLLQENDSLSCVKSPAGVMTQLTISKEQFTDAFTSNLSSSLAWQIGEAQFNISASKPSEGLMLSPPSYLLLLPQDSVRNFFEQEQTELMQPRTAFLSTIYNIKKREYRFSNISRLLMEHIKNNTEKTPEGKPYITKDLVLVLLPVKRQVAGASNSLYTSQLNNFMFPSGVKLQLGKKNKTARIGVYSMTYTDN
modifications: tri-acylated lipid anchor; O-glycosylation, 7 sites
notes: also called His-tagged BamG; source: P. gingivalis expressing C-terminally His-tagged BamG (homologous recombination), membranes solubilised in DDM; not shown: His7, C-terminal, kept
B3: binds (PgBamA (PGN_0299)).

B4: BtBamI (Bt3612) (natural protein, UniProt Q8A1P7 20-196, looked up)
chain: CSETEEVGKYDNWRARNEAFIDSLANVYATASGRGGLERIEMLTAPGNYIYYKEMEPMTDHVVKAGNPKYTDYVKVYYKGTNILGEYFDGNFKGDNPVVDGKDPSEGDSPTTIFQVSGVITGWGEVLQRMEVGDRWKVYIPWDYAYGSSGTTGILGYSALVFDITLLDFANTEAELK
modifications: O-glycosylation (sites not given)
B4: binds (BtBamG (Bt4306) [3]).
